Source: US20250242020A1 (JUNO THERAPEUTICS, published 2025)

Tests used:
[1] = target: recombinant human ROR1 extracellular domain with a C-terminal 6xHis tag (human) (UniProt Q01973); assay: SPR (Biacore T200): scFv-mFc captured on anti-mouse IgG chip, ROR1 ECD 6xHis injected, multi-cycle kinetics, 1:1 model
[2] = target: recombinant human ROR1 extracellular domain with a C-terminal 6xHis tag (human) (UniProt Q01973); assay: SPR (Biacore), scFv-mFc captured on an anti-mouse IgG chip, ROR1 ECD 6xHis injected in a concentration series up to 183 nM, multi-cycle kinetics, 1:1 Binding model, 25 °C
[3] = target: recombinant human ROR1 extracellular domain with a C-terminal 6xHis tag (human) (UniProt Q01973); assay: SPR (Biacore), scFv-mFc captured on an anti-mouse IgG chip, ROR1 ECD 6xHis injected at 183, 61.0, 20.33, 6.78 and 2.26 nM, multi-cycle kinetics, 1:1 Binding model, 25 °C
[4] = target: T1, human ROR1 expressed on cells (human, UniProt Q01973 30-937); assay: plasma membrane protein array: immunohistochemistry on cells overexpressing individual human membrane proteins
T1 construct: also called hROR1; K562-ROR1-TetOn
T1 sequence (Q01973 30-937): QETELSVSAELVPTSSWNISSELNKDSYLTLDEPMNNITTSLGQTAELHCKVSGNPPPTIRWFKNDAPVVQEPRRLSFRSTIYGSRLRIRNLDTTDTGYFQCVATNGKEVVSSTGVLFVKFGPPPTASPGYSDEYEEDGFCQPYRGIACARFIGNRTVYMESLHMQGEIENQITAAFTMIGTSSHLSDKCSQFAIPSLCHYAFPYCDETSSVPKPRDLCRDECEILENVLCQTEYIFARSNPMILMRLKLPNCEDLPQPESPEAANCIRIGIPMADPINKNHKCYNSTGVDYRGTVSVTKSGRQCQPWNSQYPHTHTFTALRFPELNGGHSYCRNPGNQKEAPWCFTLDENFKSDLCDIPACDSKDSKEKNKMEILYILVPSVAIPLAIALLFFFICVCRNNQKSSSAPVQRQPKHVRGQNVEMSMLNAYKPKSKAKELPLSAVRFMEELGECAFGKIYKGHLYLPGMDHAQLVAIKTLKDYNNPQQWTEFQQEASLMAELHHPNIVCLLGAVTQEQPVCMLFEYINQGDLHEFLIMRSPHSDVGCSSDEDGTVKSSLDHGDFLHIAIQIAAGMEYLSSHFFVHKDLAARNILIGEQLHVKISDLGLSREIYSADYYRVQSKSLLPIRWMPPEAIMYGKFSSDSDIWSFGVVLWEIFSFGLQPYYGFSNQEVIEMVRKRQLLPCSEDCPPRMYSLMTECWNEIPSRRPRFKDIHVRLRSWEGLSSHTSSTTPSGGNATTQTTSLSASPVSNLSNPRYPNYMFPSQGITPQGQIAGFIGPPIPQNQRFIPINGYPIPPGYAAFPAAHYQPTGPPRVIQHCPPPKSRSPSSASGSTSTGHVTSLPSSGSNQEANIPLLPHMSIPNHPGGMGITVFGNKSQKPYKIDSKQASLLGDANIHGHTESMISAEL
Method: (§1) Off-target binding was assessed based on a plasma membrane protein array. This chip-based platform contains over 4400 groups of cells genetically engineered to overexpress individual human extracellular membrane proteins that together represent over 75% of the human extracellular proteome. The panel also includes over 1000 tethered secreted protein targets. An scFv-Fc (scFv sequence set forth in SEQ ID NO:118) was generated and used for immunohistochemistry (IHC) against the cells in the array. Confirmation screening was performed.

[5] = target: T2, human ROR2 expressed on cells of the plasma membrane protein array (human, UniProt Q01974 34-943); assay: plasma membrane protein array: immunohistochemistry with scFv-Fc on cells overexpressing individual human membrane proteins, with confirmation screening
T2 construct: whole, on cells; also called receptor tyrosine kinase-like orphan receptor 2
T2 sequence (Q01974 34-943): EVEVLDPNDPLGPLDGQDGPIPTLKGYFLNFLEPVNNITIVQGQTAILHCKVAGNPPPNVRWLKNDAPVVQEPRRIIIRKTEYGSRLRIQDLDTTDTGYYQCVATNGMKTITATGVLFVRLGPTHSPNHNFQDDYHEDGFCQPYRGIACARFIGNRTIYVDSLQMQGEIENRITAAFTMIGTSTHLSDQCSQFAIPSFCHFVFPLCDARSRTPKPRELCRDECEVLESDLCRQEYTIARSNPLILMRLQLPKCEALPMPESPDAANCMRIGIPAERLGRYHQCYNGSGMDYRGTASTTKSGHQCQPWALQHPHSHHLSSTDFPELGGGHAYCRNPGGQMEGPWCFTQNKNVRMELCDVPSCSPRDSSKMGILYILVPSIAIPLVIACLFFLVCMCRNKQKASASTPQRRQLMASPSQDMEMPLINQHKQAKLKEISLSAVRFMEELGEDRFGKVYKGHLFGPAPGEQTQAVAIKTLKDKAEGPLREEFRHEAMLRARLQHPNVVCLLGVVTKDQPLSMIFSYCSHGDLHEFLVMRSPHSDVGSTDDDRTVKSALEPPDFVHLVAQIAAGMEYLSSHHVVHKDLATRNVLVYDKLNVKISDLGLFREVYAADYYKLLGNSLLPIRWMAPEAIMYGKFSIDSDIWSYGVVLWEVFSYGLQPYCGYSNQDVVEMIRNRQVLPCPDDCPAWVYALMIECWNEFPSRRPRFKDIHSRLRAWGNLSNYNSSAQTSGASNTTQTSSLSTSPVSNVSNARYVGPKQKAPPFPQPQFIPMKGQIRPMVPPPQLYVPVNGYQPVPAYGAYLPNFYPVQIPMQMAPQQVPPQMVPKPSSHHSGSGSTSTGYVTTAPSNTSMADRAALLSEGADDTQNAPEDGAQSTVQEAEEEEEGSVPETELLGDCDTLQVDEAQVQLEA
Method: as §1

Chain of recombinant human ROR1 extracellular domain with a C-terminal 6xHis tag (human) (Q01973 other isoform, or with tags, fused parts or gaps): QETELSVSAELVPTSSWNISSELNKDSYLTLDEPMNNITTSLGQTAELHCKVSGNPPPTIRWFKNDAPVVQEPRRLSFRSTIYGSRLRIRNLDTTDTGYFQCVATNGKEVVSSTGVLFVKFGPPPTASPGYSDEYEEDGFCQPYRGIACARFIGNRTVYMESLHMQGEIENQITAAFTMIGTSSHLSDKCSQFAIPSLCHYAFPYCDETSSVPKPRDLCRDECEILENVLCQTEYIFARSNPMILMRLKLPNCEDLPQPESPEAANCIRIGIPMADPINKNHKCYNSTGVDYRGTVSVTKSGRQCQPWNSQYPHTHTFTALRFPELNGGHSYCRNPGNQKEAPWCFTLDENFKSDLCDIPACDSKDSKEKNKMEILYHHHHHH

B1: reference R12 scFv fused to murine IgG2a Fc (scFv-mFc) (Fc fusion, part only; not given: murine IgG2a Fc and junction, not shown: another chain or arm of the molecule; a dimerising Fc or GST)
scFv: QEQLVESGGRLVTPGGSLTLSCKASGFDFSAYYMSWVRQAPGKGLEWIATIYPSSGKTYYATWVNGRFTISSDNAQNTVDLQMNSLTAADRATYFCARDSYADDGALFNIWGPGTLVTISSGGGGSGGGGSGGGGSELVLTQSPSVSAALGSPAKITCTLSSAHKTDTIDWYQQLQGEAPRYLMQVQSDGSYTKRPGVPDRFSGSSSGADRYLIIPSVQADDEADYYCGADYIGGYVFGGGTQLTVTG
[1]
  Kd: 942 pM
  koff: 0.000579 s⁻¹
  kon: 614000 M⁻¹ s⁻¹
[2]
  Kd: 942 pM
  koff: 0.000579 s⁻¹
  kon: 614000 M⁻¹ s⁻¹

B2: anti-ROR1 scFv ROR1-1 fused to murine IgG2a Fc (scFv-mFc) (Fc fusion, part only; not given: murine IgG2a Fc and junction, not shown: another chain or arm of the molecule; a dimerising Fc or GST)
scFv: QVQLQESGPGLVKPSETLSLTCTVSGGSISNYYWSWIRQPAGKGLEWIGRIYTSGSTNYNPSLKSRVTMSVDTSKNQFSLKLSSLTAADTAIYYCARYYDILTGFFDYWGQGTLVTVSSGGGGSGGGGSGGGGSVIWMTQSPSLLSASTGDSVTISCRMSQDISSYLAWYQQKPGKAPELLIYAASSLQSGVPSRFSGSGSGTDFTLTISSLQSEDFATYYCQQYDSFPPTFGQGTKVEFKR
[1]
  Kd: 42000 pM
  koff: 0.005 s⁻¹
  kon: 119000 M⁻¹ s⁻¹
[3]
  Kd: 42000 pM
  koff: 0.005 s⁻¹
  kon: 119000 M⁻¹ s⁻¹

B3: scFv-Fc of the binding domain of anti-ROR1 CAR-F (scFv SEQ ID NO:118), used on the plasma membrane protein array (Fc fusion)
chain: QVQLQESGPGLVKPSETLSLTCTVSGGSISNYYWSWIRQPAGKGLEWIGRIYTSGSTNYNPSLKSRVTMSVDTSKNQFSLKLSSLTAADTAIYYCARYYDILTGFFDYWGQGTLVTVSSGGGGSGGGGSGGGGSVIWMTQSPSLLSASTGDSVTISCRMSQDISSYLAWYQQKPGKAPELLIYAASSLQSGVPSRFSGSGSGTDFTLTISSLQSEDFATYYCQQYDSFPPTFGQGTKVEFKR
notes: also called the scFv; not shown: Fc
[4]
  binding result: binds
[5]
  binding result: no binding

B4: anti-ROR1 scFv ROR1-2 fused to murine IgG2a Fc (scFv-mFc) (Fc fusion, part only; not given: murine IgG2a Fc and junction, not shown: another chain or arm of the molecule; a dimerising Fc or GST)
scFv: QLQLQESGPGLVKPSETLSLTCTVSGGSINSTTSYWAWIRQPPGKGLEWIGTIFYSGKTYNNPSLKSRVTMSVDTSKNHFSLKVNSVTAADTAVYYCARFDYGFHDAFDIWGQGTMVTVSSGGGGSGGGGSGGGGSEIVMTQSPATLSLSPGERATLSCRASQSITSDYLSWYQQKPGQAPRLLIYGASTRATGIPARFSGSGSGTDFTLTISSLQPEDFVVYYCQQDYNLYTFGQGTKLEIKR
[1]
  Kd: 95.7 pM
  koff: 3.94e-05 s⁻¹
  kon: 412000 M⁻¹ s⁻¹
[3]
  Kd: 95.7 pM
  koff: 3.94e-05 s⁻¹
  kon: 412000 M⁻¹ s⁻¹

B5: anti-ROR1 scFv ROR1-3 fused to murine IgG2a Fc (scFv-mFc) (Fc fusion, part only; not given: murine IgG2a Fc and junction, not shown: another chain or arm of the molecule; a dimerising Fc or GST)
scFv: QVQLVQSGAEVKKPGASVKVSCKASGYTFTSYGISWVRQAPGQGLEWMGWISAYNGNTKYAQKLQGRVTMTTDTSTSTAYMELRSLRSDDTAVYYCARDEDILTGYNYYGMDVWGQGTTVTVSSGGGGSGGGGSGGGGSQLVLTQSPSASASLGASVKLTCTLSSGHSSYAIAWHQQQPEKGPRYLMKLNSDGSHSKGDGIPDRFSGSSSGAERYLTISSLQSEDEADYYCQTWGTGIRVFGGGTKLTVLG
[1]
  Kd: 924 pM
  koff: 1.08e-05 s⁻¹
  kon: 11700 M⁻¹ s⁻¹
[3]
  Kd: 924 pM
  koff: 1.08e-05 s⁻¹
  kon: 11700 M⁻¹ s⁻¹

B6: anti-ROR1 scFv ROR1-4 fused to murine IgG2a Fc (scFv-mFc) (Fc fusion, part only; not given: murine IgG2a Fc and junction, not shown: another chain or arm of the molecule; a dimerising Fc or GST)
scFv: QVQLLQSGAEVKKPGASVKVSCKASGYTFTSYGISWVRQAPGQGLEWMGWISAYTGNTRYAQKLQGRVTMTTDTSTSTAYMELRSLRSDDTAVYYCAREEGATTDYDYYGMDVWGQGTAVTVSSGGGGSGGGGSGGGGSQLVLTQSPSASASLGASVKLTCTLSSGHSSYAIAWHQQQPEKGPRYLMKLNSDGSHSKGDGIPDRFSGSSSGAERYLTISSLQSEDEADYYCQTWGTGIRVFGGGTKLTVLG
[1]
  Kd: 13800 pM
  koff: 0.00022 s⁻¹
  kon: 16000 M⁻¹ s⁻¹
[3]
  Kd: 13800 pM
  koff: 0.00022 s⁻¹
  kon: 16000 M⁻¹ s⁻¹
